Patent US20170081395A1 (LABRYS BIOLOGICS, published 2017)
Ends that are not written are not given here.

Biological target: T1, antibody G1 Fab fragment
T1 construct: purified on Ni-NTA (tag not described); also called antibody G1 Fabs
Assay: Biacore, 10 uM peptide with 50 nM G1 Fab over human α-CGRP on chip

T1 sequence (VH, as listed by the source, chain 1 of 2): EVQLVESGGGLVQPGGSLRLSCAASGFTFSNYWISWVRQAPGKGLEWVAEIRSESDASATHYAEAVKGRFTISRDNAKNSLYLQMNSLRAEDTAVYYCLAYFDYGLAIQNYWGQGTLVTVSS
T1 sequence (VL, as listed by the source, chain 2 of 2): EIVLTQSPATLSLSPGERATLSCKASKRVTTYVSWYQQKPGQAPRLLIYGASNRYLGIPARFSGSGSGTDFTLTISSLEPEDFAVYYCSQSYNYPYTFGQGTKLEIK

Row | % of binding blocked [%] | Binder
1 | 100 | SGGVVKNNFVPTNVGSAAF-NH2 (also: N-terminal biotin when captured on the chip) [human α-CGRP K35A (19-37)]
2 | 100 | SGGVVKNNFVATNVGSKAF-NH2 [human α-CGRP P29A (19-37)]
3 | 100 | SGGVVKNNFVPTNVGSMAF-NH2 (also: N-terminal biotin when captured on the chip) [human α-CGRP K35M (19-37)]
4 | 100 | SGGVVKNNFVPTNVGSEAF-NH2 (also: N-terminal biotin when captured on the chip) [human α-CGRP K35E (19-37)]
5 | ~40 | ACDTATCVTHRLAGLLSRSGGVVKNNFVPTNVGSKA-OH (ends and bridges not checked, also called Peptide 1-36 (not amidated at the C-terminus)) [human α-CGRP 1-36-COOH]
6 | 100 | SCNTATCVTHRLAGLLSRSGGVVKDNFVPTNVGSEAF-NH2 (ends and bridges not checked; also: N-terminal biotin when captured on the chip, also called rat α (1-37); α-rat) [rat α-CGRP (1-37)]
